Source: the supplement of paper PMC9428881
± gives the standard error.

Experiment: background-corrected fluorescence of 3'-dye-labeled ssDNA relative to brightest sequence (3'-GCGCG) (fraction); higher = brighter dye fluorescence (less quenching)
Method: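 Single-stranded DNA is synthesized in situ on glass microarrays by 5'->3' photolithographic synthesis, with a Cy3 or Cy5 phosphoramidite coupled at the 3' end next to all 1024 permuted pentamers P1-P5. The construct is 5'-T5-(ACGT minus P5..P1 trinucleotides)-T15-P5P4P3P2P1-dye-3'; the dye is a 3' terminal modification, not part of the sequence. Arrays were scanned at 532 nm (Cy3) or 635 nm (Cy5), background from unlabeled oligos was subtracted, and values are averaged over 10 replicate features per array and at least 3 independent syntheses.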

Sequence	background-corrected fluorescence (dye: Cy3 (3' terminal))	background-corrected fluorescence (dye: Cy5 (3' terminal))
TTTTTTCATGCTGATGCGCATTTTTTTTTTTTTTTGACAT [TACAG]	0.536 ± 0.019	0.388 ± 0.025
TTTTTTGCTGAGCATGCTGATTTTTTTTTTTTTTTACTAC [CATCA]	0.477 ± 0.017	0.328 ± 0.035
TTTTTGCATGCGCATGAGCATTTTTTTTTTTTTTTTATCT [TCTAT]	0.457 ± 0.037	0.33 ± 0.017
TTTTTTCAGCAGCATGAGCATTTTTTTTTTTTTTTGTTCT [TCTTG]	0.459 ± 0.012	0.367 ± 0.027
TTTTTTGCTGCTGCTGCTGATTTTTTTTTTTTTTTAAAAC [CAAAA]	0.461 ± 0.048	0.321 ± 0.019
TTTTTTGCTGCTCATGCTGATTTTTTTTTTTTTTTAAGAC [CAGAA]	0.485 ± 0.015	0.363 ± 0.018
TTTTTTCATGCTGAGCATGATTTTTTTTTTTTTTTGACTC [CTCAG]	0.419 ± 0.021	0.317 ± 0.028
TTTTTTCAGCATGCTCAGCATTTTTTTTTTTTTTTGTAGT [TGATG]	0.575 ± 0.0066	0.459 ± 0.032
TTTTTTGATCATCAGCAGCATTTTTTTTTTTTTTTCGGTT [TTGGC]	0.545 ± 0.0074	0.427 ± 0.024
TTTTTTGATCATGATGATGCTTTTTTTTTTTTTTTCGCCA [ACCGC]	0.49 ± 0.03	0.423 ± 0.051
TTTTTTGATGATGCTGATGCTTTTTTTTTTTTTTTCCACA [ACACC]	0.472 ± 0.027	0.375 ± 0.055
TTTTTTGCGCATGAGCATGATTTTTTTTTTTTTTTATCTC [CTCTA]	0.41 ± 0.024	0.291 ± 0.02
TTTTTTGATCAGCATGCTCATTTTTTTTTTTTTTTCGTAG [GATGC]	0.615 ± 0.024	0.435 ± 0.03
TTTTTTGAGCATCATGATGATTTTTTTTTTTTTTTCTGCC [CCGTC]	0.402 ± 0.027	0.312 ± 0.018
TTTTTTGCTCATGCTCATCATTTTTTTTTTTTTTTAGAGG [GGAGA]	0.645 ± 0.037	0.525 ± 0.055
TTTTTTGAGCATGATCAGCATTTTTTTTTTTTTTTCTCGT [TGCTC]	0.567 ± 0.015	0.416 ± 0.024
TTTTTGCATGCTCATCATGATTTTTTTTTTTTTTTTAGGC [CGGAT]	0.617 ± 0.027	0.464 ± 0.026
TTTTTTGCTGATCATCATGCTTTTTTTTTTTTTTTACGGA [AGGCA]	0.683 ± 0.03	0.588 ± 0.029
TTTTTTGCTCATGATGCTGCTTTTTTTTTTTTTTTAGCAA [AACGA]	0.579 ± 0.03	0.427 ± 0.03
TTTTTTCAGCATCATGCTGCTTTTTTTTTTTTTTTGTGAA [AAGTG]	0.607 ± 0.023	0.511 ± 0.032
TTTTTGCAGCATCATGATGCTTTTTTTTTTTTTTTTTGCA [ACGTT]	0.546 ± 0.025	0.456 ± 0.039
TTTTTTGCGCATGAGCATGCTTTTTTTTTTTTTTTATCTA	0.482 ± 0.029	0.368 ± 0.025
TTTTTTGCGCATGCTGATGCTTTTTTTTTTTTTTTATACA [ACATA]	0.492 ± 0.031	0.372 ± 0.024
TTTTTTGATGCTCATCATGATTTTTTTTTTTTTTTCAGGC [CGGAC]	0.571 ± 0.012	0.469 ± 0.032
TTTTTTGCGCATCAGCAGCATTTTTTTTTTTTTTTATGTT [TTGTA]	0.575 ± 0.028	0.432 ± 0.035
TTTTTGCATCAGCATCAGCATTTTTTTTTTTTTTTTGTGT	0.603 ± 0.025	0.497 ± 0.026
TTTTTTGCTCAGCATGCTCATTTTTTTTTTTTTTTAGTAG [GATGA]	0.605 ± 0.054	0.46 ± 0.032
TTTTTTGAGCAGCAGCATCATTTTTTTTTTTTTTTCTTTG [GTTTC]	0.498 ± 0.024	0.343 ± 0.027
